Test [1] relates to Bmal1 promoter. Description: NHR-promoter luciferase screen, Bmal1 promoter. Format: cell-based, mouse. The settings on record: for Luc. act., normalized to lacZ / Normalized Luc. act., normalized to control: Bmal1 promoter, HR component without or with ligand; for mBmal1 promoter reporter activity: transcription factor +/- ligand, control = 1.00. The procedure:
(§1) The use, feasibility, and reproducibility of the functional NHR-promoter screen in a 48-well format have been tested validated. Briefly, there were co-expressed 50 ng of each NHR/NHR homodimer or NHR/RXR heterodimer with 100 ng promoter/luciferase construct and 50 ng of LacZ (as a control for transfection efficiency) in CV-1 cells using Fugene HD (Roche) as a transfection reagent (alternatively or additionally, a CMV-YFP construct can be used as a transfection control). Each of the nuclear hormone receptors that were used in these experiments was cloned into a pcDNA3.1 vector and comprised a C-terminally linked V5H6 tag. Twenty-four hours after transfection, appropriate ligands were added, where applicable, (see Table 5 for various ligands and concentrations and after 48 hrs, samples were assayed for luciferase and LacZ activity. To measure for luciferase activity 15 ul of sample was added to 30 ul of luciferase buffer (20 mM tricine, 1.07 mM MgCarbonate, 2.67 mM MgSulfate, 0.1 mM Naz-EDTA, 5 mM DTT, 5 mM ATP, 0.15 mg/ml CoA, 0.5 mM Luciferin), mixed briefly, and run in a Perkin Elmer Victor 5 luminometer. Thus, the functional NHR-promoter screen was used to observe the transcriptional activity of 29 promoters from various physiological pathways including inflammation, lipid and sugar metabolism, cholesterol transport, xenobiotic metabolism, and circadian rhythm.
(§2) The promoters that facilitate transcription of the indicated gene products that were tested using the protocols described herein are listed in the first row of the table. The nuclear hormone receptors and, where applicable, ligands that were assayed for their transcriptional effects on the promoters are listed in the first column of the table. The data represent the luciferase activity of each sample normalized to both the lacZ activity of that sample and to a control, e.g., no NHR or ligand, as customary in the art. As described previously, these normalizations allow the transcriptional activity of each reporter cell to be compared to other samples.
(§3) Tables 7-40 show the transcriptional effects of the hormone receptors, and, where applicable, ligands (orphan receptors are screened without ligand), on each individual promoter. […] The control data of each table are shown in their last rows.

Test [2] deals with SREBP1c promoter. Description: NHR-promoter luciferase screen, SREBP1c promoter. The settings on record: for Luc. act., normalized to lacZ / Normalized Luc. act., normalized to control: SREBP1c promoter, HR component without or with ligand; for mSREBP1-c promoter reporter activity: transcription factor +/- ligand, control = 1.00. Type of test: cell-based, mouse. The procedure: as §1, §2, §3

B1: CAR: Constitutive Androstane Receptor (NR1I3), cDNA driver (protein, UniProt Q14994 1-352, looked up)
Nuclear receptor subfamily 1 …: MASREDELRNCVVCGDQATGYHFNALTCEGCKGFFRRTVSKSIGPTCPFAGSCEVSKTQRRHCPACRLQKCLDAGMRKDMILSAEALALRRAKQAQRRAQQTPVQLSKEQEELIRTLLGAHTRHMGTMFEQFVQFRPPAHLFIHHQPLPTLAPVLPLVTHFADINTFMVLQVIKFTKDLPVFRSLPIEDQISLLKGAAVEICHIVLNTTFCLQTQNFLCGPLRYTIEDGARVSPTVGFQVEFLELLFHFHGTLRKLQLQEPEYVLLAAMALFSPDRPGVTQRDEIDQLQEEMALTLQSYIKGQQRRPRDRFLYAKLLGLLAELRSINEAYGYQIQHIQGLSAMMPLLQEICS
For B1, in test [1], the “Luc. act., normalized to lacZ” value was 16.4; the “Normalized Luc. act., normalized to control” value is listed as 1.1; the “mBmal1 promoter reporter activity” value is 1.05. For the same molecule, in test [2], the “Luc. act., normalized to lacZ” value came out at 312.9; the “Normalized Luc. act., normalized to control” value was found to be 1.0; the “mSREBP1-c promoter reporter activity” value was 0.97.

B2: PXR: Pregnane X Receptor (NR1I2), cDNA driver (protein, UniProt O75469 1-434, looked up)
Nuclear receptor subfamily 1 …: MEVRPKESWNHADFVHCEDTESVPGKPSVNADEEVGGPQICRVCGDKATGYHFNVMTCEGCKGFFRRAMKRNARLRCPFRKGACEITRKTRRQCQACRLRKCLESGMKKEMIMSDEAVEERRALIKRKKSERTGTQPLGVQGLTEEQRMMIRELMDAQMKTFDTTFSHFKNFRLPGVLSSGCELPESLQAPSREEAAKWSQVRKDLCSLKVSLQLRGEDGSVWNYKPPADSGGKEIFSLLPHMADMSTYMFKGIISFAKVISYFRDLPIEDQISLLKGAAFELCQLRFNTVFNAETGTWECGRLSYCLEDTAGGFQQLLLEPMLKFHYMLKKLQLHEEEYVLMQAISLFSPDRPGVLQHRVVDQLQEQFAITLKSYIECNRPQPAHRFLFLKIMAMLTELRSINAQHTQRLLRIQDIHPFATPLMQELFGITGS
For B2, in test [1], the “Luc. act., normalized to lacZ” value amounted to 31.2; the “Normalized Luc. act., normalized to control” value came to 2.0; the “mBmal1 promoter reporter activity” value is reported as 2.00. Also, in test [2], the “Luc. act., normalized to lacZ” value was determined as 486.8; the “Normalized Luc. act., normalized to control” value came out at 1.5; the “mSREBP1-c promoter reporter activity” value is 1.51.

B3: RXRb: Retinoic X Receptor β (NR2B2), cDNA driver (protein, UniProt P28702 1-533, looked up)
Retinoic acid receptor …: MSWAARPPFLPQRHAAGQCGPVGVRKEMHCGVASRWRRRRPWLDPAAAAAAAVAGGEQQTPEPEPGEAGRDGMGDSGRDSRSPDSSSPNPLPQGVPPPSPPGPPLPPSTAPSLGGSGAPPPPPMPPPPLGSPFPVISSSMGSPGLPPPAPPGFSGPVSSPQINSTVSLPGGGSGPPEDVKPPVLGVRGLHCPPPPGGPGAGKRLCAICGDRSSGKHYGVYSCEGCKGFFKRTIRKDLTYSCRDNKDCTVDKRQRNRCQYCRYQKCLATGMKREAVQEERQRGKDKDGDGEGAGGAPEEMPVDRILEAELAVEQKSDQGVEGPGGTGGSGSSPNDPVTNICQAADKQLFTLVEWAKRIPHFSSLPLDDQVILLRAGWNELLIASFSHRSIDVRDGILLATGLHVHRNSAHSAGVGAIFDRVLTELVSKMRDMRMDKTELGCLRAIILFNPDAKGLSNPSEVEVLREKVYASLETYCKQKYPEQQGRFAKLLLRLPALRSIGLKCLEHLFFFKLIGDTPIDTFLMEMLEAPHQLA
With B3, in test [1], the “Luc. act., normalized to lacZ” value worked out at 12.5; the “Normalized Luc. act., normalized to control” value worked out at 0.8; the “mBmal1 promoter reporter activity” value came out at 0.80. Besides, in test [2], the “Luc. act., normalized to lacZ” value is on record as 544.4; the “Normalized Luc. act., normalized to control” value is reported as 1.7; the “mSREBP1-c promoter reporter activity” value is listed as 1.69.

B4: HNF4g: Hepatocyte Nuclear Factor γ (NR2A2), cDNA driver (protein, UniProt Q14541 1-408, looked up)
Hepatocyte nuclear factor …: MNTTDNGVNCLCAICGDRATGKHYGASSCDGCKGFFRRSIRKSHVYSCRFSRQCVVDKDKRNQCRYCRLRKCFRAGMKKEAVQNERDRISTRRSTFDGSNIPSINTLAQAEVRSRQISVSSPGSSTDINVKKIASIGDVCESMKQQLLVLVEWAKYIPAFCELPLDDQVALLRAHAGEHLLLGATKRSMMYKDILLLGNNYVIHRNSCEVEISRVANRVLDELVRPFQEIQIDDNEYACLKAIVFFDPDAKGLSDPVKIKNMRFQVQIGLEDYINDRQYDSRGRFGELLLLLPTLQSITWQMIEQIQFVKLFGMVKIDNLLQEMLLGGASNDGSHLHHPMHPHLSQDPLTGQTILLGPMSTLVHADQISTPETPLPSPPQGSGQEQYKIAANQASVISHQHLSKQKQL
With B4, in test [1], the “Luc. act., normalized to lacZ” value came to 11.5; the “Normalized Luc. act., normalized to control” value came out at 0.7; the “mBmal1 promoter reporter activity” value was determined as 0.73. For the same molecule, in test [2], the “Luc. act., normalized to lacZ” value was 296.9; the “Normalized Luc. act., normalized to control” value came to 0.9; the “mSREBP1-c promoter reporter activity” value is 0.92.

B5: RORb: RAR-related Orphan Receptor β (NR1F2), cDNA driver (protein, UniProt Q92753 1-470, looked up)
Nuclear receptor ROR-beta: MCENQLKTKADATAQIEVIPCKICGDKSSGIHYGVITCEGCKGFFRRSQQNNASYSCPRQRNCLIDRTNRNRCQHCRLQKCLALGMSRDAVKFGRMSKKQRDSLYAEVQKHQQRLQEQRQQQSGEAEALARVYSSSISNGLSNLNNETSGTYANGHVIDLPKSEGYYNVDSGQPSPDQSGLDMTGIKQIKQEPIYDLTSVPNLFTYSSFNNGQLAPGITMTEIDRIAQNIIKSHLETCQYTMEELHQLAWQTHTYEEIKAYQSKSREALWQQCAIQITHAIQYVVEFAKRITGFMELCQNDQILLLKSGCLEVVLVRMCRAFNPLNNTVLFEGKYGGMQMFKALGSDDLVNEAFDFAKNLCSLQLTEEEIALFSSAVLISPDRAWLIEPRKVQKLQEKIYFALQHVIQKNHLDDETLAKLIAKIPTITAVCNLHGEKLQVFKQSHPEIVNTLFPPLYKELFNPDCATGCK
In the case of B5, in test [1], the “Luc. act., normalized to lacZ” value was 16.5; the “Normalized Luc. act., normalized to control” value came to 1.1; the “mBmal1 promoter reporter activity” value was found to be 1.06. In test [2], the “Luc. act., normalized to lacZ” value is on record as 442.5; the “Normalized Luc. act., normalized to control” value is 1.4; the “mSREBP1-c promoter reporter activity” value stood at 1.37.

B6: RXRg: Retinoic X Receptor γ (NR2B3), cDNA driver (protein, UniProt P48443 1-463, looked up)
Retinoic acid receptor …: MYGNYSHFMKFPAGYGGSPGHTGSTSMSPSAALSTGKPMDSHPSYTDTPVSAPRTLSAVGTPLNALGSPYRVITSAMGPPSGALAAPPGINLVAPPSSQLNVVNSVSSSEDIKPLPGLPGIGNMNYPSTSPGSLVKHICAICGDRSSGKHYGVYSCEGCKGFFKRTIRKDLIYTCRDNKDCLIDKRQRNRCQYCRYQKCLVMGMKREAVQEERQRSRERAESEAECATSGHEDMPVERILEAELAVEPKTESYGDMNMENSTNDPVTNICHAADKQLFTLVEWAKRIPHFSDLTLEDQVILLRAGWNELLIASFSHRSVSVQDGILLATGLHVHRSSAHSAGVGSIFDRVLTELVSKMKDMQMDKSELGCLRAIVLFNPDAKGLSNPSEVETLREKVYATLEAYTKQKYPEQPGRFAKLLLRLPALRSIGLKCLEHLFFFKLIGDTPIDTFLMEMLETPLQIT
Take B6: in test [1], the “Luc. act., normalized to lacZ” value came out at 12.7; the “Normalized Luc. act., normalized to control” value worked out at 0.8; the “mBmal1 promoter reporter activity” value was 0.81. For the same molecule, in test [2], the “Luc. act., normalized to lacZ” value amounted to 999.7; the “Normalized Luc. act., normalized to control” value worked out at 3.1; the “mSREBP1-c promoter reporter activity” value came to 3.10.

B7: TR2: Testicular Orphan Nuclear Receptor 2 (NR2C1), cDNA driver (protein, UniProt P13056 1-603, looked up)
Nuclear receptor subfamily 2 …: MATIEEIAHQIIEQQMGEIVTEQQTGQKIQIVTALDHNTQGKQFILTNHDGSTPSKVILARQDSTPGKVFLTTPDAAGVNQLFFTTPDLSAQHLQLLTDNSPDQGPNKVFDLCVVCGDKASGRHYGAVTCEGCKGFFKRSIRKNLVYSCRGSKDCIINKHHRNRCQYCRLQRCIAFGMKQDSVQCERKPIEVSREKSSNCAASTEKIYIRKDLRSPLTATPTFVTDSESTRSTGLLDSGMFMNIHPSGVKTESAVLMTSDKAESCQGDLSTLANVVTSLANLGKTKDLSQNSNEMSMIESLSNDDTSLCEFQEMQTNGDVSRAFDTLAKALNPGESTACQSSVAGMEGSVHLITGDSSINYTEKEGPLLSDSHVAFRLTMPSPMPEYLNVHYIGESASRLLFLSMHWALSIPSFQALGQENSISLVKAYWNELFTLGLAQCWQVMNVATILATFVNCLHNSLQQDKMSTERRKLLMEHIFKLQEFCNSMVKLCIDGYEYAYLKAIVLFSPDHPSLENMEQIEKFQEKAYVEFQDYITKTYPDDTYRLSRLLLRLPALRLMNATITEELFFKGLIGNIRIDSVIPHILKMEPADYNSQIIGHSI
Regarding B7, in test [1], the “Luc. act., normalized to lacZ” value amounted to 10.8; the “Normalized Luc. act., normalized to control” value is listed as 0.7; the “mBmal1 promoter reporter activity” value was 0.69. Moreover, in test [2], the “Luc. act., normalized to lacZ” value amounted to 102.9; the “Normalized Luc. act., normalized to control” value worked out at 0.3; the “mSREBP1-c promoter reporter activity” value amounted to 0.32.

Values taken from patent publication US20110263454A1, “Methods of Identifying Functional Characteristics of Promoters, Transcription Modifying Proteins and Transcription Modulating Agents” (Salk Institute for Biological Studies, priority 2008, published 2011).
